According to patent US20230203161A1 (TENEOBIO, published 2023):
Substitutions are numbered along the chain they refer to.

B1: monoparatopic PSMA×CD3 bispecific antibody 346181×CD3 (bispecific antibody)
chain 1: QLQLQESGPGLVKPSETLSLTCTVSGGSISSSNYFWGWIRQSPGKGLEWIGSIDYSGYTYYNPSLKSRVTISVDTSKNQFSLKLSSVTAADTAVYNCARHKAATADFDYRGQGTLVTVSS
chain 2: EVQLVESGGGLVQPGRSLRLSCAASGFTFDDYAMHWVRQAPGKGLEWVSGISWNSGSIGYADSVKGRFTISRDNAKNSLYLQMNSLRAEDTALYYCAKDSRGYGDYRLGGAYWGQGTLVTVSS
chain 3: not shown
B2: biparatopic anti-PSMA×CD3 antibody 350123×CD3 (bispecific antibody)
chain 1: QLQLQESGPGLVKPSETLSLTCTVSGGSISSSNYFWGWIRQSPGKGLEWIGSIDYSGYTYYNPSLKSRVTISVDTSKNQFSLKLSSVTAADTAVYNCARHKAATADFDYRGQGTLVTVSSGGGGSGGGGSQVQLVESGGGVVQPGRSLRLSCAASGFSFSRYGMHWVRQAPGKGLEGVAVIWYDGSNRYYADSVKGRFTISRDNSKNTLYLQMNSLRAEDTAVYYCAREPRIGYYYESSGYYSLDYRGQGTLVTVSS
chain 2: B1 chain 2
chain 3: not shown
B3: anti-PSMA heavy-chain antibody (HCAb) clone ID 325920 (antibody, V domains shown)
VH: B1 chain 1 with N33S, F35Y, S42P, K66Q
notes: Heavy chain-only antibody (UniAb)
B4: anti-PSMA heavy-chain antibody (HCAb) clone ID 346165 (antibody, V domains shown)
VH: B1 chain 1 with N33S, F35Y, S42P, I53V, K66Q
notes: as for B3
B5: anti-PSMA heavy-chain antibody (HCAb) clone ID 326109 (antibody, V domains shown)
VH: QLQLQESGPGLVKPSETLSLTCTVSGGSISSNSYYWGWIRQSPGKGLEWLGSIYDSGSTHYNPSLKSRVIISGDTSKNQFSLKLSSVTAADTAVYYCARHKAATADFDYRGQGTLVTVSS
notes: as for B3
B6: anti-PSMA heavy-chain antibody (HCAb) clone ID 346181 (antibody, V domains shown)
VH: B1 chain 1
notes: as for B3
B7: anti-PSMA heavy-chain antibody (HCAb) clone ID 345480 (antibody, V domains shown)
VH: QVQLVESGGGVVQPGRSLRLSCAASGFSFSSYGMHWVRQAPGKGLEWVAVIWYDGSNRYYADSVKGRFTISRDNSKNTLYLQMNSLRAEDTAVYYCAREPRIGYYYESSGYYSLDYRGQGTLVTVSS
notes: as for B3
B8: anti-PSMA heavy-chain antibody (HCAb) clone ID 345509 (antibody, V domains shown)
VH: B7 VH with V11L, R16G, W47G, R58K, L79M
notes: as for B3
B9: anti-PSMA heavy-chain antibody (HCAb) clone ID 345443 (antibody, V domains shown)
VH: B7 VH with W47G, Y80F
notes: as for B3
B10: anti-PSMA heavy-chain antibody (HCAb) clone ID 326084 (antibody, V domains shown)
VH: B7 VH with W47G, E107D
notes: as for B3
B11: anti-PSMA heavy-chain antibody (HCAb) clone ID 345444 (antibody, V domains shown)
VH: B7 VH with S28T, W47G
notes: as for B3
B12: anti-PSMA heavy-chain antibody (HCAb) clone ID 345505 (antibody, V domains shown)
VH: B7 VH with S28T, S30I, W47G
notes: as for B3
B13: anti-PSMA heavy-chain antibody (HCAb) clone ID 326028 (antibody, V domains shown)
VH: B7 VH with S30R, W52S, R58K, N74Y, E107D, Y112D
notes: as for B3
B14: anti-PSMA heavy-chain antibody (HCAb) clone ID 325836 (antibody, V domains shown)
VH: B7 VH with S30R, R58K, N74Y, E107D, Y112D
notes: as for B3
B15: anti-PSMA heavy-chain antibody (HCAb) clone ID 326029 (antibody, V domains shown)
VH: B7 VH with S31R, W52S, R58K, I102V, S108T
notes: as for B3
B16: anti-PSMA heavy-chain antibody (HCAb) clone ID 345438 (antibody, V domains shown)
VH: B7 VH with L45P, R58K
notes: as for B3
B17: anti-PSMA heavy-chain antibody (HCAb) clone ID 345421 (antibody, V domains shown)
VH: B7 VH with G8V, W47G
notes: as for B3
B18: anti-PSMA heavy-chain antibody (HCAb) clone ID 326116 (antibody, V domains shown)
VH: B7 VH with S31R, W47G, W52S, R58K, N74Y, E107D, Y112D
notes: as for B3
B19: anti-PSMA heavy-chain antibody (HCAb) clone ID 345482 (antibody, V domains shown)
VH: B7 VH with W47G, N74S
notes: as for B3
B20: anti-PSMA heavy-chain antibody (HCAb) clone ID 326087 (antibody, V domains shown)
VH: B7 VH with S28I, S30R, L45P, R58K, E107D, Y112D
notes: as for B3
B21: anti-PSMA heavy-chain antibody (HCAb) clone ID 325742 (antibody, V domains shown)
VH: B7 VH with R58K, N74Y, Y112D
notes: as for B3
B22: anti-PSMA heavy-chain antibody (HCAb) clone ID 345461 (antibody, V domains shown)
VH: B7 VH with S30T, W47G
notes: as for B3
B23: anti-PSMA heavy-chain antibody (HCAb) clone ID 345508 (antibody, V domains shown)
VH: B7 VH with L45P
notes: as for B3
B24: anti-PSMA heavy-chain antibody (HCAb) clone ID 345490 (antibody, V domains shown)
VH: B7 VH with V11L, Q13K, R16G, W47G
notes: as for B3
B25: anti-PSMA heavy-chain antibody (HCAb) clone ID 325867 (antibody, V domains shown)
VH: B7 VH with S30R, R58K, N74Y, Y112D
notes: as for B3
B26: anti-PSMA heavy-chain antibody (HCAb) clone ID 326027 (antibody, V domains shown)
VH: B7 VH with S30R, R58K, E107D, Y112D
notes: as for B3
B27: anti-PSMA heavy-chain antibody (HCAb) clone ID 345436 (antibody, V domains shown)
VH: B7 VH with S31R, W47G, R58K
notes: as for B3
B28: anti-PSMA heavy-chain antibody (HCAb) clone ID 345510 (antibody, V domains shown)
VH: B7 VH with R58K, L79M
notes: as for B3
B29: anti-PSMA heavy-chain antibody (HCAb) clone ID 345493 (antibody, V domains shown)
VH: B7 VH with S31R
notes: as for B3
B30: anti-PSMA heavy-chain antibody (HCAb) clone ID 345447 (antibody, V domains shown)
VH: B7 VH with W47G, W52S
notes: as for B3
B31: anti-PSMA heavy-chain antibody (HCAb) clone ID 345485 (antibody, V domains shown)
VH: B7 VH with S30R, R58K, L79M
notes: as for B3
B32: anti-PSMA heavy-chain antibody (HCAb) clone ID 345463 (antibody, V domains shown)
VH: B7 VH with S28I, S30R, L45P, R58K
notes: as for B3
B33: anti-PSMA heavy-chain antibody (HCAb) clone ID 345497 (antibody, V domains shown)
VH: B7 VH with S31R, W47G
notes: as for B3

The binders below were run against T1, human Prostate Specific Membrane Antigen (PSMA) (human, UniProt Q04609 1-750) (assay: cell-based or functional assay).
T1 sequence (Q04609 whole entry): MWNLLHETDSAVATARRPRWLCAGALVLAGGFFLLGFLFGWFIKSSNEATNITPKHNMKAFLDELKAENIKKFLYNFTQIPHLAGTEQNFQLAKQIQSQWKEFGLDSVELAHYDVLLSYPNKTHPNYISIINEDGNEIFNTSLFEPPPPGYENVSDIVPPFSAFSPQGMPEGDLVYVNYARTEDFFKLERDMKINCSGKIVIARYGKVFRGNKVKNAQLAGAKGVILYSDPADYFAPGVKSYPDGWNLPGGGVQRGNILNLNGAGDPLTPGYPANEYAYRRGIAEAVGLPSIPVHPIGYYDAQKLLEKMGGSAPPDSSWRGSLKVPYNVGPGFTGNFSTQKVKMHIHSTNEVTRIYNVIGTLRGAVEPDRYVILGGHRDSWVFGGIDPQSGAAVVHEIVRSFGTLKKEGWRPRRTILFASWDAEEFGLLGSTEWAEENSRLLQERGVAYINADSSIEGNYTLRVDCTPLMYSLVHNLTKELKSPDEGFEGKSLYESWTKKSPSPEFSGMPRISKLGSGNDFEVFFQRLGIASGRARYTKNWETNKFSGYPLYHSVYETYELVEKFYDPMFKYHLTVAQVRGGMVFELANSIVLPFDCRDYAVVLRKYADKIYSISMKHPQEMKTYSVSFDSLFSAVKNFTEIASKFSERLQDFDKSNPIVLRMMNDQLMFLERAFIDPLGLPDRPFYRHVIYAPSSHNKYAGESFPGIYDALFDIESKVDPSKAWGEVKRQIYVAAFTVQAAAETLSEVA

Going from B1 to B2, the “IFNγ EC50, 22Rv1 cells” value rises from 174 nM to 380 nM (2.2-fold).

First: B1
Second: B2
The “IFNγ EC50, LNCAP cells” value of the first is 19-fold higher: 63 nM for the first, 3.29 nM for the second.

First: B1
Second: B2
The “IFNγ EC50, MDA-PCa-2b cells” value of the first is 130-fold higher: 116 nM for the first, 0.9 nM for the second.

Compared with B1, B2 is 10-fold lower in “IFNγ EC50, PC3-PSMA cells” value: 10.1 nM for the first, 1.01 nM for the second.

First: B1
Second: B2
The “IL-2 EC50, LNCAP cells” value of the first is 150-fold higher: 575 nM for the first, 3.73 nM for the second.

First: B1
Second: B2
The “IL-2 EC50, MDA-PCa-2b cells” value of the first is 35-fold higher: 38.5 nM for the first, 1.11 nM for the second.

Going from B1 to B2, the “IL-2 EC50, PC3-PSMA cells” value falls from 4.1 nM to 1.1 nM (3.7-fold).

First: B1
Second: B2
The “Kill EC50, 22Rv1 cells, resting T-cells” value of the first is 130-fold higher: 52.8 nM for the first, 0.42 nM for the second.

Compared with B1, B2 is 17-fold lower in “Kill EC50, LNCAP cells, resting T-cells” value: 14.6 nM for the first, 0.84 nM for the second.

Compared with B1, B2 is 58-fold lower in “Kill EC50, MDA-PCa-2b cells, resting T-cells” value: 23.6 nM for the first, 0.41 nM for the second.

Compared with B1, B2 is 9.2-fold lower in “Kill EC50, PC3-PSMA cells, resting T-cells” value: 3.7 nM for the first, 0.4 nM for the second.

The binders below were run against T1, human Prostate Specific Membrane … (assay: cell binding, flow cytometry, 22Rv1 cells).

Going from B1 to B2, the EC50 falls from 58 nM to 3 nM (19-fold).

The binders below were run against T1, human Prostate Specific Membrane … (assay: cell binding, flow cytometry, LNCAP cells).

Compared with B1, B2 is 8.5-fold lower in EC50: 17 nM for the first, 2 nM for the second.

Each binder was assayed against T1, human Prostate Specific Membrane … (assay: cell binding, flow cytometry, PC3-PSMA cells).

First: B1
Second: B2
The EC50 of the first is 5-fold higher: 30 nM for the first, 6 nM for the second.

Each binder was assayed against T1, human Prostate Specific Membrane … (assay: cell binding, flow cytometry, MDA-PCa-2b cells).

Compared with B1, B2 is 14-fold lower in EC50: 28 nM for the first, 2 nM for the second. The second is the more potent here.

These binders were tested against T1, human Prostate Specific Membrane … (assay: flow cytometry on LNCaP cells).
Method: Briefly, 50,000 target cells were stained with a dilution series of purified UniAbs™ for 30 minutes at 4° C. Following incubation, the cells were washed twice with flow cytometry buffer (1×PBS, 1% BSA, 0.1% NaN₃) and stained with goat F(ab′)₂ anti-human IgG conjugated to R-phycoerythrin (PE) (Southern Biotech, cat. #2042-09) to detect cell-bound antibodies. After a 20-minute incubation at 4° C., the cells were washed twice with flow cytometry buffer and the mean fluorescence intensity (MFI) was measured by flow cytometry. The MFI of cells stained with secondary antibody alone were used for determination of background signal and binding of each antibody was converted to fold over background. […] In some experiments EC50 values were calculated using GraphPad Prism 7.
Column 1 indicates the clone ID of the HCAb. Column 2 indicates binding to LNCaP cells measured as fold over the background MFI signal.

Going from B3 to B4, the “fold over background MFI” value falls from 282 fold over background to 243 fold over background.

First: B5
Second: B6
The “fold over background MFI” value of the first is lower: 25 fold over background for the first, 264 fold over background for the second.

Going from B7 to B8, the “fold over background MFI” value falls from 47 fold over background to 37 fold over background.

Going from B9 to B10, the “fold over background MFI” value rises from 84 fold over background to 125 fold over background.

Compared with B11, B12 is higher in “fold over background MFI” value: 23 fold over background for the first, 59 fold over background for the second.

First: B13
Second: B14
The “fold over background MFI” value of the first is lower: 117 fold over background for the first, 163 fold over background for the second.

Compared with B15, B16 is lower in “fold over background MFI” value: 109 fold over background for the first, 13 fold over background for the second.

First: B17
Second: B18
The “fold over background MFI” value of the first is lower: 22 fold over background for the first, 38 fold over background for the second.

Compared with B19, B20 is higher in “fold over background MFI” value: 80 fold over background for the first, 129 fold over background for the second.

Compared with B21, B22 is lower in “fold over background MFI” value: 200 fold over background for the first, 102 fold over background for the second.

Compared with B23, B24 is higher in “fold over background MFI” value: 55 fold over background for the first, 80 fold over background for the second.

Going from B25 to B26, the “fold over background MFI” value falls from 210 fold over background to 138 fold over background.

Compared with B27, B28 is lower in “fold over background MFI” value: 87 fold over background for the first, 13 fold over background for the second.

Going from B29 to B30, the “fold over background MFI” value falls from 101 fold over background to 14 fold over background.

Going from B31 to B32, the “fold over background MFI” value falls from 71 fold over background to 68 fold over background.

B33 was tested, and the “fold over background MFI” value was 112 fold over background.
